Molecular target: T1, human glycoprotein VI (GPVI), native, on human platelets (human, UniProt Q9HCN6 21-339)
T1 sequence (looked up): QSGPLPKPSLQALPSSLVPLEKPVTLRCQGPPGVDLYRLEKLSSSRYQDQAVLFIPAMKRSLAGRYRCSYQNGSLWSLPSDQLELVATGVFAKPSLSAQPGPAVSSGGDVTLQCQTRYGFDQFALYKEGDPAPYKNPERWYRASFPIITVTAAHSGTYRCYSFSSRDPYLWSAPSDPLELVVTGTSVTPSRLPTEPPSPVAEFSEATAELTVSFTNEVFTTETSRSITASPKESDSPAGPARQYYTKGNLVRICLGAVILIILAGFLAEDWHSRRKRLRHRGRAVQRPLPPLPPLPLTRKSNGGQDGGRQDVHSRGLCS
Experiment: cell-based or functional assay

B1: hGP 5C4 Fab (Fab, V domains shown)
VH: EVKLQESGGGLVQPGRSLKLSCTASGFTFSDYFMSWVRQAPTRGLEWVASISSGGASAYWRDSVKGRFTISRDNAKSALYLQMDSLRSEDTATYFCARGELDFDYWGQGVMVAVSS
VL: ADPNSTLLSASVGDRVTLNCTASQNVYKNLAWYQQKLGEAPRLLLYSANSQTGIPSRFSGSGSGPDFTLTISSLQPEDVASYFCQQYYSGNTFGAGTKLELKR
For B1, the “IC50 of inhibition of collagen-induced (3 µg/ml) human platelet aggregation ex vivo” value was 0.12 mg/L.

— patent publication US20070071744A1 (published 2007)
